Key:
[1] = test system: wild type and mutated membrane LIGHT; experiment: Alanine scanning mutagenesis of membrane LIGHT and flow cytometry (HEK293FF cells); type: binding, human
Text: The full length LIGHT gene was synthesized by GeneArt (ThermoFisher Scientific) and cloned into the mammalian expression vector pcDNA 3.1(+). The following Ala mutations were introduced into the LIGHT gene: 30 single amino acid alanine substitutions from F57A to E86A; 2 single amino acid alanine substitutions; G188A, R189A; one serine substitution, A190S; 17 single amino acid alanine substitutions; T191A to V207A and 10 four amino acid alanine substitutions, 60-63, 64-67, 68-71, 72-75, 76-79, 80-83, 84-87, 88-91, 92-95 and 96-99. Constructs were reconstituted according to manufacture instructions, using DEPC-treated and sterile filtered water. Competent TOP10 E. coli cells were transformed with 100 ng of each construct and a single colony from each construct was picked and used to inoculate 10 ml of LB/carb100/glu2% medium and grown overnight at 37° C., 200 rpm. The extraction of the construct DNA was performed using the Qiagen QIAprep Spin Miniprep Kit (250) and the concentration was determined by measuring the O.D. at 260 nm in a spectrophotometer.
HEK293FF cells were cultured in Freestyle™293 expression medium (ThermoFisher scientific cat. no. 12338018) supplemented with 2 mM L-Glutamine. The day of transfection the cells were seeded in a 24-well plate at 0.6×10^6 cells/well. Lipofectamine 2000 (ThermoFisher scientific), 3 μl, was mixed with 50 μl OptiMEM medium (GIBCO) and then added to 50 μl Opti-MEM medium containing 3 ug plasmid DNA and incubated for 20 min at RT to form DNA-Lipofectamine 2000 complexes which were then added to the HEK293FF cells and incubated at 37° C., 5% CO2 for 24 hours. For each construct, in duplicate, 0.60×10^6 cells/well were used in a 96 well round bottom plate. Cells were centrifuged for 3 minutes at 300×g at 4° C., the supernatant discarded and the cells washed with 150 μl FACS buffer (0.5% FBS in phosphate buffered saline). This process was repeated 3 times. For each construct, […] cells/well were incubated with anti-LIGHT antibodies at the EC50 concentration and with positive controls of anti-LIGHT mAb MAB664 (R&D Systems), mAb F19 (EP2292663) or LTBR-Fc (R&D Systems), in a final volume of 50 μl/well for 30 min at 4° C., with shaking. The wells were washed 3 times as above and 50 μl/well of goat anti-human IgG FITC (1:1500 dilution in FACS buffer, SIGMA F9512-2ML) or goat anti-mouse APC (1/500 dilution in FACS buffer, BDBioscience 550826), as appropriate, was added to the wells and incubated for 30 min at 4° C. protected from the light, with shaking. The cells were then washed as above, resuspended in 100 μl of FACS buffer and binding of the antibodies to the constructs was measured using flow cytometry and a total of 10,000 cells were acquired for each sample. Controls of buffer and secondary antibody only as well as HEK293FF non transfected cells were also used.
All of the mAbs of this invention show a similar profile in that their epitope is located at amino acids 188-197 of LIGHT. […] The epitope of the mAbs of this invention defined by alanine scanning mutagenesis are residues 188-197 of LIGHT. This is visually depicted in FIG. 8 utilising a 3D visualisation of the LIGHT trimer from the crystal structure of LIGHT from Liu et al. (Structure 22: 1252-62; 2014). This would result in the mAbs binding to the “tip” of the LIGHT trimer and explaining the 1:1 binding. The impact of this epitope would result in […] less dosing of mAb 3B04 being required to neutralise membrane LIGHT compared to, for example, mAbs F19 and F23 (of EP2292663) which bind both soluble and membrane LIGHT equally and bind LIGHT in the ratio 3:1.

[2] = test system: CMV stimulated human PBMC; experiment: Human PBMC antigen specific (CMV) recall response in vitro, cytokines by Luminex; type: cell-based; conditions: CMV stimulation, 5 day incubation
Method: In order to test the efficacy of anti-LIGHT mAbs on stimulated PBMC a recall antigen CMV (cytomegalovirus) lysate was utilised to stimulate PBMC from human CMV-positive donors (ImmunXperts, Belgium). 200 000 cells per well in RPMI (Thermofisher cat. no. 11875) plus 10% FBS (GIBCO) was added to CMV lysate (Serion immunologics cat. no. BA109VS, final concentration 10 ug/ml) with test mAbs in a volume of 200 ul. After a 5 day incubation at 37C and 5% CO2 the media was recovered by centrifugation and assayed for cytokines by Luminex immunoassay (ThermoFisher).

[3] = test system: DSS-induced colitis in hu-NOG mice; experiment: DSS-induced acute colitis in humanized (hu-NOG) mice; type: in vivo, mouse (hu-NOG)
Method: The experiments were carried out with the NOD/Shi-scid/IL-2Rγnull immunodeficient mouse strain (NOG) engrafted with CD34+ hematopoietic stem cells isolated from human cord blood as described in Manfroi B et al. (Cancer Res. 2017; 77:1097-1107). The reconstitution of the human immune system in the mice occurred for at least 14 weeks, and hu-mice were used that had at least 25% human CD45+/total CD45 cells. Female hu-NOG mice were randomised into 3 groups (n=10) taking into account the humanization rate and the CD34+ cell donors. All animal studies described in this study have been reviewed and approved by the local ethic committee (CELEAG). Mice were allowed to acclimate to the experimental environment for 5 days prior to the beginning of the experiment. The DSS was administrated for 7 days, from day 2 to 8. The DSS (3%) was added to the drinking water (ad libitum) and freshly renewed every two days.
All treatments started before the DSS-induced colitis. 3B04 variant 16 (5 mg/kg) and the isotype control and anti-TNF (Humira) antibodies (10 mg/kg) were administrated i.p. on days 0, 3, 6, 9. The experiment was terminated on day 12. The following parameters were recorded daily for 12 days: body weight in grams (g); diarrhea and stool consistency; bleeding and mortality. The global clinical score was calculated as follows: […]

[4] = target: T1, DcR3 binding to membrane LIGHT (EL4-LIGHT cells) (Homo sapiens, UniProt O43557); experiment: Competition binding of anti-membrane LIGHT antibodies with DcR3-His on EL4-LIGHT cells; conditions: mAb at up to 100 nM
T1 construct: expressed in transfected cells; host or cells: EL4 mouse lymphoma cells, stably transduced
Method: DcR3 (TNFRSF6B) is a decoy receptor that competes with receptors for ligand binding. DcR3 can bind and neutralise LIGHT with high affinity and TL1A and FasL with lower affinity (Zhan C et al. Structure. 2011, 19:162-71 “Decoy strategies: the structure of TL1A:DcR3 complex”). Stably transduced LIGHT-expressing EL4 cells (mouse lymphoma cell line; EL4-LIGHT) were used for the flow cytometry-based competition-binding analysis.
EL4-LIGHT cells (0.25×10^6) were preincubated with anti-membrane LIGHT mAbs (0-300 nM) for 15 min at 4° C. followed by incubation with DcR3-His tagged (1 nM, Creative BioMart; ref:TNFRSF6B-552H, lot:962512) for 30 min at 4° C. The samples were then incubated with mouse anti-histag antibody (diluted 1:500, Biolegend, cat. no. 652502) for 30 minutes at 4° C., followed by incubation with anti-mouse APC (dil 1:500, BDBiosciences, cat. no. 550826) for 30 minutes at 4° C. The tubes were washed three times after each of the detection antibody stages and flow cytometry analysis was performed. Specific mean fluorescence intensity (MFI) obtained from the binding of DcR3-His to LIGHT on EL4 cells were used to determine the levels of competition binding.

T1 sequence (O43557 whole entry): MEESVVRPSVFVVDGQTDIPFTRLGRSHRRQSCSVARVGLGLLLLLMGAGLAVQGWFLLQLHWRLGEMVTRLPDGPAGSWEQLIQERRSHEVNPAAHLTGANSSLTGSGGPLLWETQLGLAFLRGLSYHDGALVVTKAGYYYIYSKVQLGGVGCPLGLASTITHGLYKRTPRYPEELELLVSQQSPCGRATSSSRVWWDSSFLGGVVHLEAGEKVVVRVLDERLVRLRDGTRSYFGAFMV

B1: LTBR-Fc: LTBR-Fc receptor fusion protein (R&D Systems), positive control in alanine scanning (protein)
chain: SQPQAVPPYASENQTCRDQEKEYYEPQHRICCSRCPPGTYVSAKCSRIRDTVCATCAENSYNEHWNYLTICQLCRPCDPVMGLEEIAPCTSKRKTQCRCQPGMFCAAWALECTHCELLSDCPPGTEAELKDEVGKGNNHCVPCKAGHFQNTSSPSARCQPHTRCENQGLVEAAPGTAQSDTTCKNPLEPLPPEMSGTMLM
modifications: left off: a dimerising Fc or GST
notes: LTBR-Fc receptor fusion protein (R&D Systems), positive control in alanine scanning
Binding to LIGHT alanine substitution constructs versus WT LIGHT ([1]; single substitutions F57A to E86A and four amino acid substitutions 60-63 to 96-99): no difference in binding | Binding to LIGHT amino acid substitution constructs versus WT LIGHT ([1]; substitutions G188A to V207A): no difference in binding

B2: 3B04_var16: deimmunised 3B04 IgG4 variant: 3B04_VL_4 (SEQ ID NO 33) + 3B04_VH_4 (SEQ ID NO 37) (antibody, listed as Homo sapiens, V domains shown)
VH: QVQLVQSGAEVKKPGASVKVSCKASGYTFTDYEMHWVRQAPGQGLEWMGEIDPETGDTAYAQKFQGRVTLTADKSTSTAYMELSSLRSEDTAVYYCSRETDYFFDYWGQGTLVTVSS
VL: DIQMTQSPSSLSASVGDRVTITCRASENIYGALNWYQQKPGKAPKLLIYGATNLAEGVPSRFSGSGSGRDYTLTISSLQPEDFATYYCQNVLTTPWTFGQGTKLEIKR
IL-17 production from PBMC ([2]; FIG. 11A): significantly (p<0.05) inhibited | IFN gamma production from PBMC ([2]; FIG. 11B): significantly (p<0.05) inhibited | TNF production from PBMC ([2]; FIG. 11C): significantly (p<0.05) inhibited | IL-6 production from PBMC ([2]; FIG. 11D): significantly (p<0.05) inhibited | IL-12p70 production from PBMC ([2]; FIG. 11E): significantly (p<0.05) inhibited | Effect on global clinical score compared to the anti-TNF positive control ([3]; 3B04 variant 16 5 mg/kg, Humira 10 mg/kg): significantly superior (p<0.05) | Global clinical score ([3]; i.p. days 0, 3, 6, 9, versus IgG control, FIG. 9): significant (p<0.05) decrease in global clinical score as early as day 2

B3: 3A07: parental anti-membrane LIGHT antibody, VL SEQ ID NO 97, VH SEQ ID NO 101; chimeric IgG4 mAb (antibody, listed as Homo sapiens, V domains shown)
VH: QVQLQQSGAELVRPGAPVTLSCKASDYTFTDSEIHWVKQTPVHGLEWIGEIDPETGGTAYNQKFKGKATLTADKSSSTAYMELRSLTSEDSAVYYCSRETDYFFDYWGQGTTLTVSS
VL: ENVLTQSPAIMSASPGEKVTMTCSASSSVSYMYWYQQRPGSSPRLLIYDTSNLASGVPVRFSGSGSGTSYSLTISRMEAEDAATYYCQQWSSYPLTFGSGTKLEIK
Inhibition of DcR3 binding to membrane LIGHT [4]: only partially inhibit

B4: 3C10: parental anti-membrane LIGHT antibody, VL SEQ ID NO 89, VH SEQ ID NO 93; chimeric IgG4 mAb (antibody, listed as Homo sapiens, V domains shown)
VH: EVQLQQSGAELVRPGASVTLSCKASDYTFTDSEIHWVKQTPVHGLEWIGEIDPETGGTAYNQKFKGKATLTADKSSSTAYMELRSLTSEDSAVYYCSRETDYFFDYWGQGTTLTVSS
VL: DVVMTQTPAIMSASPGEKVTMTCSASSSVSYMYWYQQKPGSSPRLLIYDTSNLASGVPVRFSGSGSGTSYSLTISRMEAEDAATYYCQQWSSYPLTFGAGTKLELK
Inhibition of DcR3 binding to membrane LIGHT [4]: only partially inhibit

B5: 2E08: parental anti-membrane LIGHT antibody, VL SEQ ID NO 81, VH SEQ ID NO 85; chimeric IgG4 mAb (antibody, listed as Homo sapiens, V domains shown)
VH: QVQMKESGAELVRPGVSVKISCKGSGYTFTDYAIHWVKQSHAKTLEWIGVISTYYGDASYNQKFKGKATMTVDKSSSTAYMELARLTSDDSAIYYCARSRGEYGNYDAMDYWGQGTSVTVSS
VL: DIVLTQSPASLAVSLGQRATISCKASQSVDYDGDSYMNWYQQKPGQPPKLLIYAASNLESGIPARFSGSGSGTDFTLNIHPVEEEDAATYYCQQSNEDPLTFGAGTKLELK
Inhibition of DcR3 binding to membrane LIGHT [4]: only partially inhibit
